B1: Fibulin-5 (Homo sapiens), Q9UBX5 (parent)
chain: MPGIKRILTVTILALCLPSPGNAQAQCTNGFDLDRQSGQCLDIDECRTIPEACRGDMMCVNQNGGYLCIPRTNPVYRGPYSNPYSTPYSGPYPAAAPPLSAPNYPTISRPLICRFGYQMDESNQCVDVDECATDSHQCNPTQICINTEGGYTCSCTDGYWLLEGQCLDIDECRYGYCQQLCANVPGSYSCTCNPGFTLNEDGRSCQDVNECATENPCVQTCVNTYGSFICRCDPGYELEEDGVHCSDMDECSFSEFLCQHECVNQPGTYFCSCPPGYILLDDNRSCQDINECEHRNHTCNLQQTCYNLQGGFKCIDPIRCEEPYLRISDNRCMCPAENPGCRDQPFTILYRDMDVVSGRSVPADIFQMQATTRYPGAYYIFQIKSGNEGREFYMRQTGPISATLVMTRPIKGPREIQLDLEMITVNTVINFRGSSVIRLRIYVSQYPF

The variants in this test derive from B1. As to conditions: with eln_bovin ELN.
Turning to S227P, the “effect of a mutation on the interaction” value is given as “decreasing interaction strength”.

Turning to C217R, the “effect of a mutation on the interaction” value is given as “decreasing interaction strength”.

The values are drawn from IntAct's records for PubMed 17035250.
